Assay [1] deals with human differentiated embryonic (DE) cells. The assay can be described thus: RT-PCR of cell specific genes in DE cells treated with growth factors. The class given is cell-based. The note with it: for overall induction or repression of cell specific expression (FIG. 3B): at least three experiments. The method, then: (§1) Cell Culture: Human embryonic stem cells were grown on a feeder layer of mouse embryonic fibroblasts (MEF) and then transferred to gelatin coated plates and cultured further to reduce the number of murine cells in the culture. Differentiation into embryoid bodies (EBs) was initiated by transfer to Petri dishes, where the embryoid bodies remained in suspension. After 5 days, the EBs become dissociated and cells are cultured as a monolayer forming differentiated embryonic (DE) cells. This protocol allows for initial differentiation of the human embryonic stem cells as aggregates and further differentiation as a monolayer wherein cells can be exposed to exogenous growth factors. The DE cells were cultured for 10 days in the presence of 8 different growth factors: NGF, bFGF, Activin-A, TGFβ1, HGF, EGF, BMP4 and retinoic acid (RA) (FIG. 1A).
To induce formation of EBs, ES cells were transferred using trypsin/EDTA (0.1%/l mM) to plastic Petri dishes to allow their aggregation and prevent adherence to the plate. Human EBs were grown in the same culture medium, except that it lacked leukemia inhibitory factor (LIF) and bFGF. The EBs were cultured for 5 days and then dissociated and plated on tissue culture plates coated with 50 μg/ml Fibronectin (Boehringer Mannheim). The cells were grown in the presence of the following human recombinant growth factors used singly or in groups: Basic Fibroblast Growth Factor (bFGF) (Swoboda et al, 1999)—10 ng/ml (Gibco BRL); Transforming Growth Factor Beta 1 (TGFβ1) (Swoboda et al, 1999)—2 ng/ml (R&D Systems); Activin-A (Slager et al, 1993)—20 ng/ml (R&D Systems); Bone Morphogenic Protein 4 (BMP-4) (Slager et al, 1993; Bain et al, 1996)—10 ng/ml (R&D Systems); Hepatocyte Growth Factor (HGF)/Scatter Factor (Doetsch et al, 1999)—20 ng/ml (R&D Systems); Epidermal Growth Factor (EGF) (Doetsch et al, 1999)—100 ng/ml (R&D Systems); βNerve Growth Factor (NGF) (Johansson et al, 1999)—100 ng/ml (R&D Systems); Retinoic acid (RA) (Deacon et al, 1998; Peschanski et al, 1995)—1 μM (Sigma). Under these conditions the differentiated embryonic (DE) cells were grown for another 10 days. All of the examined growth factors are absent from the KnockOut™ serum replacement in which the embryonic cells were cultured.
RT-PCR Analysis: Total RNA was extracted using Atlas™ Pure Total RNA Kit (Clontech). cDNA was synthesized from 1 μg total RNA, using Atlas™ RT-for-PCR Kit (Clontech). cDNA samples were subjected to PCR amplification with DNA primers selective for the human genes. For each gene, the DNA primers were derived from different exons to ensure that the PCR product represents the specific mRNA species and not genomic DNA. PCR was performed using the Clontech Advantaq+™ RT-PCR kit and using a two-step cycle at 68° C.
Primers were synthesized for the following genes: neurofilament heavy chain (NF-H), phosphoprotein enriched in astrocytes (PEA-15), Keratin, Dopamine β Hydroxylase (DβH), Follicular Stimulating Hormone (FSH), Enolase, Myosin light polypeptide2 (myosin), Cartilage Matrix Protein (CMP), Renin, Kallikrein, Wilms Tumor 1 (WTI), β-Globin (β-Glob), δ-Globin (δ-Glob), Cardiac Actin (cACT), Albumin, α1 anti-trypsin (α1 AT), Lipase, Amylase, PDX-1, Insulin, Glucagon, Surfactant, Parathyroid Hormone (PTH), α-feto protein (αFP), Retinoic Acid Receptor type alpha (RAR), Hepatocyte Growth Factor Receptor (c-Met), Nerve Growth Factor Receptor (NGFR), Fibroblast Growth Factor Receptor type I (FGFRI), Transforming Growth Factor Receptor type II (TGFRII), Epidermal Growth Factor Receptor type (EGFR), Activin Receptor type IIB (ACTRIIB), Bone Morphogenic Protein 4 Receptor type II (BMP4RII), Octamer Binding Protein 4 (Oct 4), Glyceraldehyde 3-phosphate dehydrogenase (G3PD), β-Actin. Also incorporated by reference, see http://www.ls.huji.ac.il/˜nissimb/factors_es/primers.html-ente.
The differentiation induced by growth factors was further examined by determining the expression of a panel of 24 cell specific genes using RT-PCR. […]

Assay [2] shares this test system. The assay can be described thus: Morphology of DE cells cultured with growth factors. The class given is cell-based. As to conditions: several days on plastic, continuous exposure to growth factor (FIG. 1B). As to the method:
as §1
To induce formation of EBs, ES cells were transferred using trypsin/EDTA (0.1%/l mM) to plastic Petri dishes to allow their aggregation and prevent adherence to the plate. Human EBs were grown in the same culture medium, except that it lacked leukemia inhibitory factor (LIF) and bFGF. The EBs were cultured for 5 days and then dissociated and plated on tissue culture plates coated with 50 μg/ml Fibronectin (Boehringer Mannheim). […]

Setting [3] is: vs control without growth factor (FIG. 4).

“Also recorded” adds a separate entry of the source.

B1: Activin-A: human recombinant Activin-A, 20 ng/ml (protein, UniProt P08476 311-426, looked up)
Inhibin beta A chain: GLECDGKVNICCKKQFFVSFKDIGWNDWIIAPSGYHANYCEGECPSHIAGTSGSSLSFHSTVINHYRMRGHSPFANLKSCCVPTKLRPMSMLYYDDGQNIIKKDIQNMIVEECGCS
In the case of B1, the “overall induction or repression of cell specific expression (FIG. 3B)” value in assay [1] is on record as “mostly repress or fail to direct differentiation of as many cell types”. In assay [1] (setting [3]), the blood formation entry is reported as “inhibit”, the “differentiation into Mullerian duct cells” value is “inhibit”, the differentiation into chondrocytes result is reported as “inhibit” and the “differentiation into ectodermal cells” value is “inhibit”. Further, in assay [1] (setting [3]), the “differentiation into endodermal cells” value is listed as “inhibit”, the “differentiation into kidney cells” value is recorded as “inhibit” and the “differentiation into mesodermal cells” value was “allow differentiation into selected mesodermal cells”. In addition, the “cell morphology found in treated culture” value in assay [2] is recorded as “muscle like syncytiums”.

B2: BMP-4: human recombinant Bone Morphogenic Protein 4, 10 ng/ml (protein, UniProt P12644 293-408, looked up)
Bone morphogenetic protein 4: SPKHHSQRARKKNKNCRRHSLYVDFSDVGWNDWIVAPPGYQAFYCHGDCPFPLADHLNSTNHAIVQTLVNSVNSSIPKACCVPTELSAISMLYLDEYDKVVLKNYQEMVVEGCGCR
Take B2: in assay [1], the “overall induction or repression of cell specific expression (FIG. 3B)” value is recorded as “mostly repress or fail to direct differentiation of as many cell types”. Also, in assay [1] (setting [3]), the blood formation result is on record as “reduced”, the differentiation into chondrocytes result is “reduced”, the “differentiation into ectodermal cells” value was “allow or induce” and the “differentiation into mesodermal cells” value was “allow or induce; also recorded: inhibits differentiation of all other mesodermal cells examined”. Further, in assay [1] (setting [3]), the “differentiation into skin cells” value is listed as “apparently permitting skin cells to form”. Also, the “cell morphology found in treated culture” value in assay [2] is reported as “large round cells”.

These data come from patent US7772001B2, “Directed differentiation of embryonic stem cells into an endoderm cell” (Yissum Research Development Company Of the Hebrew …, priority 2000, dated 2010).
